The target of one data set is GST-hnRNP A1 (UniProt P09651 1-372). The experiment in a line: EMSA; 2 ug tRNA competitor; LightShift Chemiluminescent EMSA kit; 20 fmol biotinylated RNA, 50 ng protein (20 ng in Fig. 3 legend), 2 ug tRNA, 20 ul, 20 min, room temperature; 6% native PAGE; buffer, salt and pH not stated. The note with it: protein: recombinant; label: 3' biotin. (In EMSA bound probe runs differently from free probe, usually more slowly.)

The next data set concerns the target GST-SF2/ASF (UniProt Q07955 1-248). The data set is described as above. The following applies: protein: recombinant; label: 3' biotin.

GST-SF2/ASF, sequence (Q07955 whole entry): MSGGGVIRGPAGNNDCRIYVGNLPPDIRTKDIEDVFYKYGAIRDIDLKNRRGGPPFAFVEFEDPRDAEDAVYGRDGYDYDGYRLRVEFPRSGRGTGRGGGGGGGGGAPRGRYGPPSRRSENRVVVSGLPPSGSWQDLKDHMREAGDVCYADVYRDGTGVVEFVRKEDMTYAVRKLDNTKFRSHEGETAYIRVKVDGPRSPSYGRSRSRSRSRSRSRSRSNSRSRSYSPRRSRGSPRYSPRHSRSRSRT
GST-hnRNP A1, sequence (P09651 whole entry): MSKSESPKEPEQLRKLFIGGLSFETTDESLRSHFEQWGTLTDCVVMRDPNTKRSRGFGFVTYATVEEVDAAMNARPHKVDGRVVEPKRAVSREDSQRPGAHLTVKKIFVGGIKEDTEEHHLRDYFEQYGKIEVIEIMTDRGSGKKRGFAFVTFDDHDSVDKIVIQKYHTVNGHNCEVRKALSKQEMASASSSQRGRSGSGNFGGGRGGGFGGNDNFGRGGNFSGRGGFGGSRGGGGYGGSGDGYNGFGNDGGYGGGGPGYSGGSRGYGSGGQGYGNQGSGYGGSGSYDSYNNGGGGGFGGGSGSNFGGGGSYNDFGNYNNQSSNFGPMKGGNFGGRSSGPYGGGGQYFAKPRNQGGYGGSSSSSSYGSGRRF

B1: wt-A1 (ssRNA)
RNA: UGAAAUAACUAGGGAAAGAGGAUG
Take B1: the binding result in the data set with GST-hnRNP A1 is “binds”.

B2: wt-SF2 (ssRNA)
RNA: ACGCUGGGGAAGGAUGUGCCAUGGAUAUGGGAAGGAACCCUAG
On to B2, for which the binding result with GST-SF2/ASF is “binds”.

Values taken from article PMC3639176, “HnRNP A1/A2 and SF2/ASF Regulate Alternative Splicing of Interferon Regulatory Factor-3 and Affect Immunomodulatory Functions in Human Non-Small Cell Lung Cancer Cells”.
